What is called Kd is the concentration at which binding is half-saturated. The low end stands for tighter binding, the high end for weaker binding. One may read the koff as a measure of how fast the partners let go of each other. Read a low koff as slow dissociation. By kon is commonly meant a measure of how fast the partners come together. A lower kon goes with slow association.

27 molecules from paper PMC5797146 (Scientific Reports, 2018) can be followed below.

The target in the assay is T1, Clostridium difficile toxin A (Clostridioides difficile …, UniProt P16154).
T1 construct: also called TcdA
Briefly: SPR. The conditions noted are these: both partners purified.

B1: A26.8 VHH Q101K (VHH)
VHH: QVKLEESGGGLVQAGGSLRLSCAASERTFSRYPVAWFRQAPGAEREFVAVISSTGTSTYYADSVKGRFTISRDNAKVTVYLQMNNLKREDTAVYFCAVNSKRTRLQDPNEYDYWGQGTQVTVSS
notes: source: E. coli TG1, periplasmic extract, purified (IMAC, SEC)
B1: the affinity, expressed as Kd, was 7.6 nM; the koff was determined as 0.02 s⁻¹; the kon is 2.7e+06 M⁻¹ s⁻¹.

B2: A26.8 VHH T103R (VHH)
VHH: QVKLEESGGGLVQAGGSLRLSCAASERTFSRYPVAWFRQAPGAEREFVAVISSTGTSTYYADSVKGRFTISRDNAKVTVYLQMNNLKREDTAVYFCAVNSQRRRLQDPNEYDYWGQGTQVTVSS
notes: as for B1
For the molecule B2, the Kd is 5.3 nM, the koff stood at 0.014 s⁻¹ and the kon came to 2.7e+06 M⁻¹ s⁻¹.

B3: A26.8 VHH T56R, T103K (VHH)
VHH: QVKLEESGGGLVQAGGSLRLSCAASERTFSRYPVAWFRQAPGAEREFVAVISSTGRSTYYADSVKGRFTISRDNAKVTVYLQMNNLKREDTAVYFCAVNSQRKRLQDPNEYDYWGQGTQVTVSS
notes: as for B1
Regarding B3, the Kd was determined as 3.4 nM, the koff turned out to be 0.029 s⁻¹ and the kon was determined as 8.6e+06 M⁻¹ s⁻¹.

B4: A26.8 VHH T103K (VHH)
VHH: QVKLEESGGGLVQAGGSLRLSCAASERTFSRYPVAWFRQAPGAEREFVAVISSTGTSTYYADSVKGRFTISRDNAKVTVYLQMNNLKREDTAVYFCAVNSQRKRLQDPNEYDYWGQGTQVTVSS
notes: as for B1
For B4, the Kd is 8.3 nM, the koff worked out at 0.02 s⁻¹ and the kon was found to be 2.5e+06 M⁻¹ s⁻¹.

B5: A26.8 VHH R104W (VHH)
VHH: QVKLEESGGGLVQAGGSLRLSCAASERTFSRYPVAWFRQAPGAEREFVAVISSTGTSTYYADSVKGRFTISRDNAKVTVYLQMNNLKREDTAVYFCAVNSQRTWLQDPNEYDYWGQGTQVTVSS
notes: as for B1
Take B5: the Kd amounted to 165 nM, the koff was 0.055 s⁻¹ and the kon is 300000 M⁻¹ s⁻¹.

B6: A26.8 VHH Q106F (VHH)
VHH: QVKLEESGGGLVQAGGSLRLSCAASERTFSRYPVAWFRQAPGAEREFVAVISSTGTSTYYADSVKGRFTISRDNAKVTVYLQMNNLKREDTAVYFCAVNSQRTRLFDPNEYDYWGQGTQVTVSS
notes: as for B1
The molecule B6 had a Kd of 5130 nM.

B7: A26.8 VHH N109R (VHH)
VHH: QVKLEESGGGLVQAGGSLRLSCAASERTFSRYPVAWFRQAPGAEREFVAVISSTGTSTYYADSVKGRFTISRDNAKVTVYLQMNNLKREDTAVYFCAVNSQRTRLQDPREYDYWGQGTQVTVSS
notes: as for B1
As to B7, the affinity, expressed as Kd, was 13.9 nM; the koff stood at 0.027 s⁻¹; the kon was found to be 2e+06 M⁻¹ s⁻¹.

B8: A26.8 VHH T56I (VHH)
VHH: QVKLEESGGGLVQAGGSLRLSCAASERTFSRYPVAWFRQAPGAEREFVAVISSTGISTYYADSVKGRFTISRDNAKVTVYLQMNNLKREDTAVYFCAVNSQRTRLQDPNEYDYWGQGTQVTVSS
notes: as for B1
As for B8, the Kd turned out to be 13.6 nM, the koff was found to be 0.026 s⁻¹ and the kon amounted to 1.9e+06 M⁻¹ s⁻¹.

B9: A26.8 VHH T56R, Q101K, T103K (VHH)
VHH: QVKLEESGGGLVQAGGSLRLSCAASERTFSRYPVAWFRQAPGAEREFVAVISSTGRSTYYADSVKGRFTISRDNAKVTVYLQMNNLKREDTAVYFCAVNSKRKRLQDPNEYDYWGQGTQVTVSS
notes: as for B1
In the case of B9, the Kd is 3.2 nM, the koff was 0.047 s⁻¹ and the kon is 1.47e+07 M⁻¹ s⁻¹.

B10: A26.8 VHH T56R, Q101K, T103M (VHH)
VHH: QVKLEESGGGLVQAGGSLRLSCAASERTFSRYPVAWFRQAPGAEREFVAVISSTGRSTYYADSVKGRFTISRDNAKVTVYLQMNNLKREDTAVYFCAVNSKRMRLQDPNEYDYWGQGTQVTVSS
notes: as for B1
The molecule B10 came in with a Kd of 2.9 nM, a koff of 0.03 s⁻¹ and a kon of 1.04e+07 M⁻¹ s⁻¹.

B11: A26.8 VHH T56R (VHH)
VHH: QVKLEESGGGLVQAGGSLRLSCAASERTFSRYPVAWFRQAPGAEREFVAVISSTGRSTYYADSVKGRFTISRDNAKVTVYLQMNNLKREDTAVYFCAVNSQRTRLQDPNEYDYWGQGTQVTVSS
notes: as for B1
With B11, binding was characterised by a dissociation constant (Kd) of 6.2 nM, the koff stood at 0.027 s⁻¹ and the kon is 4.8e+06 M⁻¹ s⁻¹.

B12: A26.8 VHH T58K (VHH)
VHH: QVKLEESGGGLVQAGGSLRLSCAASERTFSRYPVAWFRQAPGAEREFVAVISSTGTSKYYADSVKGRFTISRDNAKVTVYLQMNNLKREDTAVYFCAVNSQRTRLQDPNEYDYWGQGTQVTVSS
notes: as for B1
As for B12, the Kd amounted to 13.5 nM, the koff turned out to be 0.033 s⁻¹ and the kon is 2.5e+06 M⁻¹ s⁻¹.

B13: A26.8 VHH D107Y (VHH)
VHH: QVKLEESGGGLVQAGGSLRLSCAASERTFSRYPVAWFRQAPGAEREFVAVISSTGTSTYYADSVKGRFTISRDNAKVTVYLQMNNLKREDTAVYFCAVNSQRTRLQYPNEYDYWGQGTQVTVSS
notes: as for B1
As to B13, binding was put at a Kd of 44 nM, the koff worked out at 0.071 s⁻¹ and the kon was determined as 1.6e+06 M⁻¹ s⁻¹.

B14: A26.8 VHH T54W (VHH)
VHH: QVKLEESGGGLVQAGGSLRLSCAASERTFSRYPVAWFRQAPGAEREFVAVISSWGTSTYYADSVKGRFTISRDNAKVTVYLQMNNLKREDTAVYFCAVNSQRTRLQDPNEYDYWGQGTQVTVSS
notes: as for B1
With B14, the Kd turned out to be 35 nM, the koff turned out to be 0.056 s⁻¹ and the kon amounted to 1.6e+06 M⁻¹ s⁻¹.

B15: A26.8 VHH D107N (VHH)
VHH: QVKLEESGGGLVQAGGSLRLSCAASERTFSRYPVAWFRQAPGAEREFVAVISSTGTSTYYADSVKGRFTISRDNAKVTVYLQMNNLKREDTAVYFCAVNSQRTRLQNPNEYDYWGQGTQVTVSS
notes: as for B1
B15: the affinity, expressed as Kd, was 21.3 nM; the koff is 0.04 s⁻¹; the kon came to 1.9e+06 M⁻¹ s⁻¹.

B16: A26.8 VHH E110Q (VHH)
VHH: QVKLEESGGGLVQAGGSLRLSCAASERTFSRYPVAWFRQAPGAEREFVAVISSTGTSTYYADSVKGRFTISRDNAKVTVYLQMNNLKREDTAVYFCAVNSQRTRLQDPNQYDYWGQGTQVTVSS
notes: as for B1
Turning to B16, binding was put at a Kd of 33.6 nM, the koff amounted to 0.07 s⁻¹ and the kon was determined as 2.1e+06 M⁻¹ s⁻¹.

B17: A26.8 VHH Q106L (VHH)
VHH: QVKLEESGGGLVQAGGSLRLSCAASERTFSRYPVAWFRQAPGAEREFVAVISSTGTSTYYADSVKGRFTISRDNAKVTVYLQMNNLKREDTAVYFCAVNSQRTRLLDPNEYDYWGQGTQVTVSS
notes: as for B1
In turn, B17 gave a Kd of 612 nM.

B18: A26.8 VHH S53R (VHH)
VHH: QVKLEESGGGLVQAGGSLRLSCAASERTFSRYPVAWFRQAPGAEREFVAVISRTGTSTYYADSVKGRFTISRDNAKVTVYLQMNNLKREDTAVYFCAVNSQRTRLQDPNEYDYWGQGTQVTVSS
notes: as for B1
In turn, B18 returned a Kd of 224 nM.

B19: A26.8 VHH D107R (VHH)
VHH: QVKLEESGGGLVQAGGSLRLSCAASERTFSRYPVAWFRQAPGAEREFVAVISSTGTSTYYADSVKGRFTISRDNAKVTVYLQMNNLKREDTAVYFCAVNSQRTRLQRPNEYDYWGQGTQVTVSS
notes: as for B1
Molecule B19 had an equilibrium dissociation constant (Kd) of 19 nM, a koff of 0.026 s⁻¹ and a kon of 1.4e+06 M⁻¹ s⁻¹.

B20: A26.8 VHH Q106W (VHH)
VHH: QVKLEESGGGLVQAGGSLRLSCAASERTFSRYPVAWFRQAPGAEREFVAVISSTGTSTYYADSVKGRFTISRDNAKVTVYLQMNNLKREDTAVYFCAVNSQRTRLWDPNEYDYWGQGTQVTVSS
notes: as for B1
The molecule B20 registered a Kd of 1480 nM.

B21: A26.8 VHH T54Y (VHH)
VHH: QVKLEESGGGLVQAGGSLRLSCAASERTFSRYPVAWFRQAPGAEREFVAVISSYGTSTYYADSVKGRFTISRDNAKVTVYLQMNNLKREDTAVYFCAVNSQRTRLQDPNEYDYWGQGTQVTVSS
notes: as for B1
On to B21, for which binding was put at a Kd of 38.9 nM, the koff is 0.069 s⁻¹ and the kon is 1.8e+06 M⁻¹ s⁻¹.

B22: A26.8 VHH T54R (VHH)
VHH: QVKLEESGGGLVQAGGSLRLSCAASERTFSRYPVAWFRQAPGAEREFVAVISSRGTSTYYADSVKGRFTISRDNAKVTVYLQMNNLKREDTAVYFCAVNSQRTRLQDPNEYDYWGQGTQVTVSS
notes: as for B1
For the molecule B22, the affinity, expressed as Kd, was 13.2 nM; the koff turned out to be 0.044 s⁻¹; the kon was found to be 3.6e+06 M⁻¹ s⁻¹.

B23: A26.8 VHH T103M (VHH)
VHH: QVKLEESGGGLVQAGGSLRLSCAASERTFSRYPVAWFRQAPGAEREFVAVISSTGTSTYYADSVKGRFTISRDNAKVTVYLQMNNLKREDTAVYFCAVNSQRMRLQDPNEYDYWGQGTQVTVSS
notes: as for B1
With B23, the Kd was found to be 13.7 nM, the koff came out at 0.024 s⁻¹ and the kon stood at 1.8e+06 M⁻¹ s⁻¹.

B24: A26.8 VHH T56R, T103R (VHH)
VHH: QVKLEESGGGLVQAGGSLRLSCAASERTFSRYPVAWFRQAPGAEREFVAVISSTGRSTYYADSVKGRFTISRDNAKVTVYLQMNNLKREDTAVYFCAVNSQRRRLQDPNEYDYWGQGTQVTVSS
notes: also called lead double mutant; source: E. coli TG1, periplasmic extract, purified (IMAC, SEC)
Turning to B24, binding was characterised by a dissociation constant (Kd) of 2.3 nM, the koff was 0.019 s⁻¹ and the kon was 8.3e+06 M⁻¹ s⁻¹.

B25: A26.8 VHH T56R, Q101K, T103R (VHH)
VHH: QVKLEESGGGLVQAGGSLRLSCAASERTFSRYPVAWFRQAPGAEREFVAVISSTGRSTYYADSVKGRFTISRDNAKVTVYLQMNNLKREDTAVYFCAVNSKRRRLQDPNEYDYWGQGTQVTVSS
notes: also called lead triple mutant; source: E. coli TG1, periplasmic extract, purified (IMAC, SEC)
As for B25, the Kd was 2 nM, the koff is 0.024 s⁻¹ and the kon is 1.23e+07 M⁻¹ s⁻¹.

B26: A26.8 VHH T103W (VHH)
VHH: QVKLEESGGGLVQAGGSLRLSCAASERTFSRYPVAWFRQAPGAEREFVAVISSTGTSTYYADSVKGRFTISRDNAKVTVYLQMNNLKREDTAVYFCAVNSQRWRLQDPNEYDYWGQGTQVTVSS
notes: as for B1
Molecule B26 registered a dissociation constant Kd of 16.3 nM, a koff of 0.036 s⁻¹ and a kon of 2.4e+06 M⁻¹ s⁻¹.

B27: A26.8 VHH Q106Y (VHH)
VHH: QVKLEESGGGLVQAGGSLRLSCAASERTFSRYPVAWFRQAPGAEREFVAVISSTGTSTYYADSVKGRFTISRDNAKVTVYLQMNNLKREDTAVYFCAVNSQRTRLYDPNEYDYWGQGTQVTVSS
notes: as for B1
For the molecule B27, the Kd turned out to be 2320 nM.
